From paper PMC4555475

Assays:
[1] = biological target: voltage-gated Ca^2+ channel complex; experiment: FRET or BRET
[2] = biological target: KpBest, bacterial homolog of human bestrophin 1 (not stated (bacterial))

With “calmodulin (from UniProt P0DP23 1-149) (natural protein)” the stoichiometry N [1] was 1.
For “KpBest, bacterial homolog of human bestrophin 1 (natural protein)”, the stoichiometry N [2] was 5.
